How the values were obtained:
SCC152 target cells [1] = experiment: Lactate dehydrogenase (LDH) cytotoxicity assay in SCC152 co-culture; assay type: cell-based; conditions: CD4+/CER + CD8+/HPV16 E7 TCR 1:1; 4 hours co-culture, varying target:effector ratios
Protocol: FIG. 19 is a bar graph showing a lactate dehydrogenase (LDH) cytotoxicity assay performed 4 hours after co-culture of CD8+ T cells transduced with a HPV16 E7 TCR and CD4+ T cells transduced with CER104 at a 1:1 ratio with SCC152 target cells at varying target cell:effector cell ratios (0.5:1, 1:1, 1:2.5, 1:5, 1:10, 1:20).
LDH is a cytosolic enzyme that is released by a cell into cell culture media when the plasma membrane is damaged. Thus, LDH's presence in culture medium is a marker for cell death. LDH assays are capable of detecting low level damage to cell membrane which cannot be detected using other methods. LDH may be detected using colorimetric or fluorometric methods.

[2] = tested on: SCC152 HPV+ Head & Neck Squamous Carcinoma; experiment: SCC152 xenograft in NSG mice, tumor caliper measurements; assay type: in vivo; conditions: 3×10^6 CER CD4+ T cells added to 1×10^6 E7 TCR CD8+ T cells; versus E7 TCR CD8+ T cells alone
Excerpt: 1×10^^6 CD8^+ T cells engineered with a HPV E7 specific TCR were infused with or without 3×10^6 CD4+ T cells engineered with CER104. Data represents mean value of tumor caliper measurements (n=5 mice per group).
Cellular immunotherapy composition combination comprising HPV E7 specific TCR modified CD8+ T cells (1×10^6) (as described in Example 1) and hCER104 modified CD4+ T cells (3×10^6) were infused into head neck squamous cell cancer mouse model generated by injecting HPV+ SCC152 cells into NSG mice and compared with SCC152 xenograft mice treated with HPV E7 specific TCR modified CD8+ T cells alone (n=5 mice/treatment group).

SCC152 target cells [3] = experiment: Phagocytosis of SCC152 by CD4+ T cell/CER, fluorescence microscopy with hybrid capture; assay type: cell-based; conditions: TRAF-domain CERs, 4 hours, 1:1:0.5 (CD8:CD4:target cell); versus CD4+ control + CD8+/E7 TCR
Protocol: (§1) FIG. 28 is a bar graph representing quantification of CD4+ T cell-CER mediated phagocytosis of SCC152 target cells. Results calculated as ((number of phagocytic target events)/(total number of effectors))*100 from 3×3 40× images, 4 hours after initiation of co-culture assay. CD8+ T cells transduced with HPV16 E7 TCR and CD4+ T cells transduced with selected CERs (CER5, CER17, CER19, CER21, CER23, CER26, CER27, CER103b, CER104, CER105, CER106, or CER116) were co-cultured with SCC152 squamous head and neck carcinoma target cells at a 1:1:0.5 ratio for 4 hours and imaged.
as §1, with “29” for “28”, “(median area ratio” for “((number”, “of” for “of phagocytic”, “events in effector cells*% phagocytosis)” for “events)/(total number of effectors))*100”
(§2) FIG. 55 is a bar graph representing quantification of CD4+ T cell-CER mediated phagocytosis of SCC152 target cells. Percent phagocytosis was calculated as ((number of phagocytic target events)/(total number of effector cells))*100. These numbers were calculated from 3×3 images captured by Keyence BZ-X710 fluorescence microscope at 40× resolution, 4 hours after initiation of co-culture assay. CD8+ T cells transduced with HPV16 E7 TCR and CD4+ T cells transduced with a selected CER (CER29, CER30, CER110, CER112, CER113, CER114, CER116, or CER117) were co-cultured with SCC152 target cells at a 1:1:0.5 ratio (CD8:CD4:target cell) for 4 hours and imaged.
as §2, with “56” for “55”, “Adjusted phagocytic index” for “Percent phagocytosis”, “(median area ratio” for “((number”, “of” for “of phagocytic”, “events in” for “events)/(total number of”, “cells*% phagocytosis).” for “cells))*100.”
Phagocytic activity of CD4+ T cell/CER+CD8+ T cell/HPV16 E7 TCR combinations co-cultured with SCC152 cells was visualized and quantified using KEYENCE BZ-X710 fluorescence microscope, […] and hybrid capture software.

Molecule	cytolytic activity (LDH release) (SCC152 target cells [1])	tumor killing (tumor volume by caliper) [2]	engulfment of SCC152 target cells (percent phagocytosis, adjusted phagocytic index) (SCC152 target cells [3])
CER104: Chimeric engulfment receptor: Tim4 binding, Tim4 transmembrane, TLR8 and DAP12 signaling; SEQ ID NO: 139 (protein, CER104, amino acids 1-22 are signal peptide) MSKGLLLLWLVTELWWLYLTPAASEDTIIGFLGQPVTLPCHYLSWSQSRNSMCWGKGSCPNSKCNAELLRTDGTRIISRKSTKYTLLGKVQFGEVSLTISNTNRGDSGVYCCRIEVPGWFNDVKKNVRLELRRATTTKKPTTTTRPTTTPYVTTTTPELLPTTVMTTSVLPTTTPPQTLATTAFSTAVTTCPSTTPGSFSQETTKGSAFTTESETLPASNHSQRSMMTISTDIAVLRPTGSNPGILPSTSQLTTQKTTLTTSESLQKTTKSHQINSRQTILIIACCVGFVLMVLLFLAFLHHLFYWDVWFIYNVCLAKVKGYRSLSTSQTFYDAYISYDTKDASVTDWVINELRYHLEESRDKNVLLCLEERDWDPGLAIIDNLMQSINQSKKTVFVLTKKYAKSWNFKTAFYLALQRLMDENMDVIIFILLEPVLQHSQYLRLRQRICKSSILQWPDNPKAEGLFWQTLRNVVLTENDSRYNNMYVDSIKQYYFLGRLVPRGRGAAEAATRKQRITETESPYQELQGQRSDVYSDLNTQRPYYK	enhanced cytolytic activity	enhanced tumor killing in vivo	
CER116: Chimeric engulfment receptor: Tim4 binding, Tim4 transmembrane, TRAF6 and TLR8 signaling; SEQ ID NO: 152 (protein, CER116, amino acids 1-22 are signal peptide) MSKGLLLLWLVTELWWLYLTPAASEDTIIGFLGQPVTLPCHYLSWSQSRNSMCWGKGSCPNSKCNAELLRTDGTRIISRKSTKYTLLGKVQFGEVSLTISNTNRGDSGVYCCRIEVPGWFNDVKKNVRLELRRATTTKKPTTTTRPTTTPYVTTTTPELLPTTVMTTSVLPTTTPPQTLATTAFSTAVTTCPSTTPGSFSQETTKGSAFTTESETLPASNHSQRSMMTISTDIAVLRPTGSNPGILPSTSQLTTQKTTLTTSESLQKTTKSHQINSRQTILIIACCVGFVLMVLLFLAFLMSLLNCENSCGSSQSESDCCVAMASSCSAVTKDDSVGGTASTGNLSSSFMEEIQGYDVEFDPPLESKYECPICLMALREAVQTPCGHRFCKACIIKSIRDAGHKCPVDNEILLENQLFPDNFAKREILSLMVKCPNEGCLHKMELRHLEDHQAHCEFALMDCPQCQRPFQKFHINIHILKDCPRRQVSCDNCAASMAFEDKEIHDQNCPLANVICEYCNTILIREQMPNHYDLDCPTAPIPCTFSTFGCHEKMQRNHLARHLQENTQSHMRMLAHHLFYWDVWFIYNVCLAKVKGYRSLSTSQTFYDAYISYDTKDASVTDWVINELRYHLEESRDKNVLLCLEERDWDPGLAIIDNLMQSINQSKKTVFVLTKKYAKSWNFKTAFYLALQRLMDENMDVIIFILLEPVLQHSQYLRLRQRICKSSILQWPDNPKAEGLFWQTLRNVVLTENDSRYNNMYVDSIKQY			enhanced engulfment
CER117: Chimeric engulfment receptor: Tim4 binding, Tim4 transmembrane, TLR8 and TRAF6 signaling; SEQ ID NO: 153 (protein, CER117, amino acids 1-22 are signal peptide) MSKGLLLLWLVTELWWLYLTPAASEDTIIGFLGQPVTLPCHYLSWSQSRNSMCWGKGSCPNSKCNAELLRTDGTRIISRKSTKYTLLGKVQFGEVSLTISNTNRGDSGVYCCRIEVPGWFNDVKKNVRLELRRATTTKKPTTTTRPTTTPYVTTTTPELLPTTVMTTSVLPTTTPPQTLATTAFSTAVTTCPSTTPGSFSQETTKGSAFTTESETLPASNHSQRSMMTISTDIAVLRPTGSNPGILPSTSQLTTQKTTLTTSESLQKTTKSHQINSRQTILIIACCVGFVLMVLLFLAFLHHLFYWDVWFIYNVCLAKVKGYRSLSTSQTFYDAYISYDTKDASVTDWVINELRYHLEESRDKNVLLCLEERDWDPGLAIIDNLMQSINQSKKTVFVLTKKYAKSWNFKTAFYLALQRLMDENMDVIIFILLEPVLQHSQYLRLRQRICKSSILQWPDNPKAEGLFWQTLRNVVLTENDSRYNNMYVDSIKQYMSLLNCENSCGSSQSESDCCVAMASSCSAVTKDDSVGGTASTGNLSSSFMEEIQGYDVEFDPPLESKYECPICLMALREAVQTPCGHRFCKACIIKSIRDAGHKCPVDNEILLENQLFPDNFAKREILSLMVKCPNEGCLHKMELRHLEDHQAHCEFALMDCPQCQRPFQKFHINIHILKDCPRRQVSCDNCAASMAFEDKEIHDQNCPLANVICEYCNTILIREQMPNHYDLDCPTAPIPCTFSTFGCHEKMQRNHLARHLQENTQSHMRMLA			enhanced engulfment

Reference: patent publication US12303551B2, “Cellular immunotherapy compositions and uses thereof” (CERO THERPEUTICS HOLDINGS, INC., priority 2018, dated 2025)
